Experimental data as given in article PMC7124252.

Key:
CTCF (human) [1] = target: T1, CTCF (human) (UniProt P49711); test: EMSA; settings: 10 mM Tris (pH not stated), 50 mM KCl, 5 mM MgCl2, 0.1 mM ZnSO4, 1 mM DTT, 0.1% NP-40, 50 ng/µl poly(dI-dC), 2.5% glycerol, 20 fmol probe, 30 min at 25 C
T1 sequence: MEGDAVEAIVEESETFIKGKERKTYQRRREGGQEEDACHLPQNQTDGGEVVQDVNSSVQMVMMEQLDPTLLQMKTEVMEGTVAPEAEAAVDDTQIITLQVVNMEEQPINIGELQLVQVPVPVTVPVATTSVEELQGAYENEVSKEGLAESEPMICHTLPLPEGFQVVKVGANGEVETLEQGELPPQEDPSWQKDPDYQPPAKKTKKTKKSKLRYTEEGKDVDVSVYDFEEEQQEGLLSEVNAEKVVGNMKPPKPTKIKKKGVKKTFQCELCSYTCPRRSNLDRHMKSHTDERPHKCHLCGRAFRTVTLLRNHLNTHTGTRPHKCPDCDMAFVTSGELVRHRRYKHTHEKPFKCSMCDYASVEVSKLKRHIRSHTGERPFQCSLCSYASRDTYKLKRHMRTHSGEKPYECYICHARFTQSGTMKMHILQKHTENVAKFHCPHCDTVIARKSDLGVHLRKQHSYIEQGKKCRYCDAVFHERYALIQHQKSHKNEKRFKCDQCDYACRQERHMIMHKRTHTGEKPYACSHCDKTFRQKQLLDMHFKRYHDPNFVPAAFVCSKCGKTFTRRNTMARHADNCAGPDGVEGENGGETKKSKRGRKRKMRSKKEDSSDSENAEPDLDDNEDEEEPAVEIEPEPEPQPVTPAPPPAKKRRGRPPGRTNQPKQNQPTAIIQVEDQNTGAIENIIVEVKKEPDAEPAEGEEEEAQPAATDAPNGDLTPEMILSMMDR

CTCF (human) [2] = test: EMSA; parameters: unit not given here; settings: 10 mM Tris (pH not stated), 50 mM KCl, 5 mM MgCl2, 0.1 mM ZnSO4, 1 mM DTT, 0.1% NP-40, 50 ng/µl poly(dI-dC), 2.5% glycerol, 20 fmol probe, 30 min at 25 C

## ACCTGTAACATTTCCTTTCCAGTTGCCGGATTCATTATAAGGATATGTACAGTTTGTTGCGTTGTATTGCGCCACCCGTTGGCTTAGGAAAGAACTGCCCTCGTAGGTTGGCCTACAAGGTTTGCAACTTCAGAGCCTC (double strand) [Cacna1b e37a DNA probe (139 bp)]
CTCF (human) [1]
  binding signal: binds

## Cacna1b e37a DNA probe (139 bp)
CTCF (human) [2]
  Kd: 0.0461

## TCAGTGCAGGGTCAAGGTCTACCTTGTATGCAACTCGAGCCGGGCATTTCTTCCCCAACCCCAGAGGTGGGGACATGTGTTTCAGCATCTCAAACATGTCATTGTAACTGATGCGCCCACTGGAAACCCGTTCCAGAGG (double strand) [Cacna1b e37b DNA probe (139 bp)]
CTCF (human) [1]
  binding: no binding
